Experimental data from paper PMC10314921, “Eltrombopag directly activates BAK and induces apoptosis” (Cell Death & Disease, 2023).

B1: BAK lacking its transmembrane domain (BAKΔTM), wild type [human] / itself (parent)
chain: EPALPSASEEQVAQDTEEVFRSYVFYRHQQEQEAEGVAAPADPEMVTLPLQPSSTMGQVGRQLAIIGDDINRRYDSEFQTMLQHLQPTAENAYEYFTKIATSLFESGINWGRVVALLGFGYRLALHVYQHGLTGFLGQVTRFVVDFMLHHCIARWIAQRGGWVAALNLGNG

Variants of: B1
Assay: size exclusion chromatography (BAK oligomerization assay)
Conditions: with itself; with Eltro (3.4 mM in panels a, b); CHAPS buffer, 1 h at 25 °C; Superdex75; parent: 54; read off a plot

Variant | screen value
EPALPSASEEQVAQDTEEVFRSYVFYRHQQEQEAEGVAAPADPEMVTLPLQPSSTMGQVGRQLAIIGDDINRRYDSEFQTMLQHLQPTAENAYEYFTKIATSLFESGINWGRVVALLGFGYRLALHVYQHGLTGFLGQVTEFVVDFMLHHCIARWIAQRGGWVAALNLGNG | 39%
EPALPSASEEQVAQDTEEVFRSYVFYRHQQEQEAEGVAAPADPEMVTLPLQPSSTMGQVGRQLAIIGDDINRRYDSEFQTMLQHLQPTAENAYEYFTKIATSLFESGINWGRVVALLGFGYRLALHVYQHGLTGFLGQVTAFVVDFMLHHCIARWIAQRGGWVAALNLGNG | 42%
